T1: Human NKp30 (BKM0179) (human, UniProt O14931 19-135, limits assumed)
T1 sequence (looked up): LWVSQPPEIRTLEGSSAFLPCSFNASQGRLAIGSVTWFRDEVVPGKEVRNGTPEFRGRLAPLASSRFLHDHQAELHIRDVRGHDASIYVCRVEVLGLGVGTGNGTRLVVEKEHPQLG


target: T1, Human NKp30 (BKM0179); experiment: SPR (BIAcore T200); human NKp30 BKM0179 captured on a CM5 chip via anti-mouse Fc, antibody construct injected at 3.9-125 nM; 1:1 model
Experimental: In this example, a series of exemplary anti-NKp30 antibody molecules were analyzed for their binding affinity for NKp30. Briefly, surface plasmon resonance (SPR) measurements were performed by using the BIAcore T200. Human NKp30 (BKM0179) was immobilized on a CM5 chip via anti-mouse Fc antibody to a response of 50 RU. […] The data was fit using a 1:1 binding model.

Binder | Kd
BKM0138 (antibody, V domains shown, also called BJM0411 VL-N95A) VH: EIQLLESGGGLVQPGGSLRLSCAVSGFSITTTGYHWNWVRQAPGKGLEWVGYIYSSGSTSYNPSLKSRFTISRDTSKNTFYLQMNSLRAEDTAVYYCARGDWHYFDYWGQGTMVTVSS VL: DSVTTQSPLSLPVTLGQPASISCSGEKLSDKYVHWYQQRPGQSPRMLIYENDRRPSGVPDRFSGSNSGNDATLKISRVEAEDVGVYFCQFWDSTASAVFGGGTKVEIK | 3.2 nM
BKM0142 (antibody, V domains shown, also called BJM0411 VH-N60A) VH: EIQLLESGGGLVQPGGSLRLSCAVSGFSITTTGYHWNWVRQAPGKGLEWVGYIYSSGSTSYAPSLKSRFTISRDTSKNTFYLQMNSLRAEDTAVYYCARGDWHYFDYWGQGTMVTVSS VL: DSVTTQSPLSLPVTLGQPASISCSGEKLSDKYVHWYQQRPGQSPRMLIYENDRRPSGVPDRFSGSNSGNDATLKISRVEAEDVGVYFCQFWDSTNSAVFGGGTKVEIK | 1.28 nM
BKM0139 (antibody, V domains shown, also called BJM0411 VL-D92A) VH: EIQLLESGGGLVQPGGSLRLSCAVSGFSITTTGYHWNWVRQAPGKGLEWVGYIYSSGSTSYNPSLKSRFTISRDTSKNTFYLQMNSLRAEDTAVYYCARGDWHYFDYWGQGTMVTVSS VL: DSVTTQSPLSLPVTLGQPASISCSGEKLSDKYVHWYQQRPGQSPRMLIYENDRRPSGVPDRFSGSNSGNDATLKISRVEAEDVGVYFCQFWASTNSAVFGGGTKVEIK | 3.2 nM
BKM0141 (antibody, V domains shown, also called BJM0407 VL-N95A) VH: EIQLLESGGGLVQPGGSLRLSCAVSGFSITTTGYHWNWVRQAPGKGLEWVGYIYSSGSTSYNPSLKSRFTISRDTSKNTFYLQMNSLRAEDTAVYYCARGDWHYFDYWGQGTMVTVSS VL: SSETTQPPSVSVSPGQTASITCSGEKLSDKYVHWYQQKPGQSPVMVIYENDRRPSGIPERFSGSNSGNTATLTISGTQAMDEADYFCQFWDSTASAVFGGGTQLTVL | 3 nM
BKM0140 (antibody, V domains shown, also called BJM0407 VL-D92A) VH: EIQLLESGGGLVQPGGSLRLSCAVSGFSITTTGYHWNWVRQAPGKGLEWVGYIYSSGSTSYNPSLKSRFTISRDTSKNTFYLQMNSLRAEDTAVYYCARGDWHYFDYWGQGTMVTVSS VL: SSETTQPPSVSVSPGQTASITCSGEKLSDKYVHWYQQKPGQSPVMVIYENDRRPSGIPERFSGSNSGNTATLTISGTQAMDEADYFCQFWASTNSAVFGGGTQLTVL | 3.3 nM

Further lines, results first:

Kd | Binder
1.45 nM | BKM0143 (antibody, V domains shown, also called BJM0407 VH-N60A) VH: EIQLLESGGGLVQPGGSLRLSCAVSGFSITTTGYHWNWVRQAPGKGLEWVGYIYSSGSTSYAPSLKSRFTISRDTSKNTFYLQMNSLRAEDTAVYYCARGDWHYFDYWGQGTMVTVSS VL: SSETTQPPSVSVSPGQTASITCSGEKLSDKYVHWYQQKPGQSPVMVIYENDRRPSGIPERFSGSNSGNTATLTISGTQAMDEADYFCQFWDSTNSAVFGGGTQLTVL
4.2 nM | BKM0145 (antibody, V domains shown, also called BJM0407 VH-N60A-VL-D92A-N95A) VH: EIQLLESGGGLVQPGGSLRLSCAVSGFSITTTGYHWNWVRQAPGKGLEWVGYIYSSGSTSYAPSLKSRFTISRDTSKNTFYLQMNSLRAEDTAVYYCARGDWHYFDYWGQGTMVTVSS VL: SSETTQPPSVSVSPGQTASITCSGEKLSDKYVHWYQQKPGQSPVMVIYENDRRPSGIPERFSGSNSGNTATLTISGTQAMDEADYFCQFWASTASAVFGGGTQLTVL
6.4 nM | BKM0144 (antibody, V domains shown, also called BJM0411 VH-N60A-VL-D92A-N95A) VH: EIQLLESGGGLVQPGGSLRLSCAVSGFSITTTGYHWNWVRQAPGKGLEWVGYIYSSGSTSYAPSLKSRFTISRDTSKNTFYLQMNSLRAEDTAVYYCARGDWHYFDYWGQGTMVTVSS VL: DSVTTQSPLSLPVTLGQPASISCSGEKLSDKYVHWYQQRPGQSPRMLIYENDRRPSGVPDRFSGSNSGNDATLKISRVEAEDVGVYFCQFWASTASAVFGGGTKVEIK
